The chains are these.
T1: human S100A8/A9 heterodimeric antigen, His-tagged (hS100A8/A9-His) (human, UniProt P05109 1-93; P06702 1-114)
T1 sequence 1: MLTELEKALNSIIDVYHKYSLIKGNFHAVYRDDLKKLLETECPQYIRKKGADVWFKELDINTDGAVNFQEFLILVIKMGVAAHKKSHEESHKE
T1 sequence 2: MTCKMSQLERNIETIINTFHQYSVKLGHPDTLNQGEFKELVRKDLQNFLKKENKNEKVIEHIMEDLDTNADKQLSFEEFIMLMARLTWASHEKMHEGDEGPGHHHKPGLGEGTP

B1: CM-67 (antibody, human IgG4 S228P, lambda, V domains shown)
VH: EVQLVESGGGLVQPGGSLRLSCAASGFTFSSHAMSWVRQAPGKGLEWVSAISGSGGSTYYAASVKGRFTISRDNSKNTLYLQMNSLRAEDTAVYYCARKFRPSRVFDAWGQGTLVTVSS
VL: SYELTQPPSVSVAPGQTARITCSGDALGDKYASWYQQKPGQAPVLVIYEDARRPSGIPERFSGSNSGNTATLTISGTQAEDEADYYCQSNDADAVWVFGGGTKLTVLG
B2: CM-79 (antibody, human IgG4 S228P, lambda, V domains shown)
VH: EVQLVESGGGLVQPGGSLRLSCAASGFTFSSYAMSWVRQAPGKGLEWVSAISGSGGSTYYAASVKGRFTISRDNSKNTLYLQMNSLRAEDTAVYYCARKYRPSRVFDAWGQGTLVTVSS
VL: SYELTQPPSVSVAPGQTARITCSGDALGDKYASWYQQKPGQAPVLVIYEDAKRNSGIPERFSGSNSGNTATLTISGTQAEDEADYYCQSNDADAVWVFGGGTKLTVLG
B3: CM-69 (antibody, human IgG4 S228P, lambda, V domains shown)
VH: EVQLVESGGGLVQPGGSLRLSCAASGFTFSSYAMSWVRQAPGKGLEWVSAISGSGGSTWYAASVKGRFTISRDNSKNTLYLQMNSLRAEDTAVYYCARKYRPSRAFDAWGQGTLVTVSS
VL: SYELTQPPSVSVAPGQTARITCSGDALGDKYASWYQQKPGQAPVLVIYQDAKRPSGIPERFSGSNSGNTATLTISGTQAEDEADYYCQSNDADAVWVFGGGTKLTVLG
B4: CM-82 (antibody, human IgG4 S228P, lambda, V domains shown)
VH: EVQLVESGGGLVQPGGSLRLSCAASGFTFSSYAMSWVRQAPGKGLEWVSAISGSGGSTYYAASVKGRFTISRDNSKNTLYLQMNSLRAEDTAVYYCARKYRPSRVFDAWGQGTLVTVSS
VL: SYELTQPPSVSVAPGQTARITCSGDALGDKYASWYQQKPGQAPVLVIYEDAKRPWGIPERFSGSNSGNTATLTISGTQAEDEADYYCQSNDADAVWVFGGGTKLTVLG
B5: CM-70 (antibody, human IgG4 S228P, lambda, V domains shown)
VH: EVQLVESGGGLVQPGGSLRLSCAASGFTFSSYAMSWVRQAPGKGLEWVSAISGSGGSTYYHASVKGRFTISRDNSKNTLYLQMNSLRAEDTAVYYCARKYRPSRAFDAWGQGTLVTVSS
VL: SYELTQPPSVSVAPGQTARITCSGDALGDKFASWYQQKPGQAPVLVIYEDAKRPSGIPERFSGSNSGNTATLTISGTQAEDEADYYCQSNDADAVWVFGGGTKLTVLG
B6: CM-77 (antibody, human IgG4 S228P, lambda, V domains shown)
VH: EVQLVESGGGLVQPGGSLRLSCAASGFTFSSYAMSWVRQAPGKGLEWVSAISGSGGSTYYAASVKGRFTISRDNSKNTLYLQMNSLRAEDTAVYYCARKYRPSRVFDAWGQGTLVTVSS
VL: SYELTQPPSVSVAPGQTARITCSGDALGDKYASWYQQKPGQAPVLVIYEDANRPSGIPERFSGSNSGNTATLTISGTQAEDEADYYCQSNDADAVWVFGGGTKLTVLG
B7: CM-71 (antibody, human IgG4 S228P, lambda, V domains shown)
VH: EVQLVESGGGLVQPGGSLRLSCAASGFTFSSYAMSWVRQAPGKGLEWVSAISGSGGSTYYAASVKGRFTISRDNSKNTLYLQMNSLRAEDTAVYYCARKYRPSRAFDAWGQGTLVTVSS
VL: SYELTQPPSVSVAPGQTARITCSGDALGDKFASWYQQKPGQAPVLVIYEDAKRPSGIPERFSGSNSGNTATLTISGTQAEDEADYYCQSNDIDAVWVFGGGTKLTVLG
B8: CM-72 (antibody, human IgG4 S228P, lambda, V domains shown)
VH: EVQLVESGGGLVQPGGSLRLSCAASGFTYSSYAMSWVRQAPGKGLEWVSAISGSGGSTYYAASVKGRFTISRDNSKNTLYLQMNSLRAEDTAVYYCARKYRPSRAFDAWGQGTLVTVSS
VL: SYELTQPPSVSVAPGQTARITCSGDALGDKFASWYQQKPGQAPVLVIYEDAKRPSGIPERFSGSNSGNTATLTISGTQAEDEADYYCQSNDIDAVWVFGGGTKLTVLG
B9: CM-80 (antibody, human IgG4 S228P, lambda, V domains shown)
VH: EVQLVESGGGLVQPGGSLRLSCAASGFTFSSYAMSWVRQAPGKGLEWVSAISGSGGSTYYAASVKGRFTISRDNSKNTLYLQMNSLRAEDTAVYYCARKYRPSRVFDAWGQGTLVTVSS
VL: SYELTQPPSVSVAPGQTARITCSGDALGDKYASWYQQKPGQAPVLVIYEDAKRQSGIPERFSGSNSGNTATLTISGTQAEDEADYYCQSNDADAVWVFGGGTKLTVLG
B10: CM-84 (antibody, human IgG4 S228P, lambda, V domains shown)
VH: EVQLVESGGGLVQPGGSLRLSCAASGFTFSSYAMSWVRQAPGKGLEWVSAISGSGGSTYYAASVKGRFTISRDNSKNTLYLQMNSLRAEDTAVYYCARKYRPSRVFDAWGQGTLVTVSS
VL: SYELTQPPSVSVAPGQTARITCSGDALGDKYASWYQQKPGQAPVLVIYEDAKRPDGIPERFSGSNSGNTATLTISGTQAEDEADYYCQSNDADAYWVFGGGTKLTVLG
B11: CM-81 (antibody, human IgG4 S228P, lambda, V domains shown)
VH: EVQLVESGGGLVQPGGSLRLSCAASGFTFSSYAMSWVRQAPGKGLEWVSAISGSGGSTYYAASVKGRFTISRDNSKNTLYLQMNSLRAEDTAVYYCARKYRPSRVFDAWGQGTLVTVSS
VL: SYELTQPPSVSVAPGQTARITCSGDALGDKYASWYQQKPGQAPVLVIYEDAKRDSGIPERFSGSNSGNTATLTISGTQAEDEADYYCQSNDADAVWVFGGGTKLTVLG
B12: CM-78 (antibody, human IgG4 S228P, lambda, V domains shown)
VH: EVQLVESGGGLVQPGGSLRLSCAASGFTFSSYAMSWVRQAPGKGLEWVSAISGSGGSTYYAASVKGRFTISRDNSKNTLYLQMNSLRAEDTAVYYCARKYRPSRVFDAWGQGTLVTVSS
VL: SYELTQPPSVSVAPGQTARITCSGDALGDKYASWYQQKPGQAPVLVIYEDAHRPSGIPERFSGSNSGNTATLTISGTQAEDEADYYCQSNDADAVWVFGGGTKLTVLG
B13: CM-76 (antibody, human IgG4 S228P, lambda, V domains shown)
VH: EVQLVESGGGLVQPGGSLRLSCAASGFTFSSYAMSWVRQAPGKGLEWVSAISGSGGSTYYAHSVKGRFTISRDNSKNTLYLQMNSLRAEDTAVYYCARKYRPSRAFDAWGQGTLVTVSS
VL: SYELTQPPSVSVAPGQTARITCSGDALGDKFASWYQQKPGQAPVLVIYEDAKRPSGIPERFSGSNSGNTATLTISGTQAEDEADYYCQSNDVDAVWVFGGGTKLTVLG
B14: CM-75 (antibody, human IgG4 S228P, lambda, V domains shown)
VH: EVQLVESGGGLVQPGGSLRLSCAASGFTFSSYAMSWVRQAPGKGLEWVSAISGSGGSTYYVASVKGRFTISRDNSKNTLYLQMNSLRAEDTAVYYCARKYRPSRAFDAWGQGTLVTVSS
VL: SYELTQPPSVSVAPGQTARITCSGDALGDKFASWYQQKPGQAPVLVIYQDAKRPSGIPERFSGSNSGNTATLTISGTQAEDEADYYCQSNDADAVWVFGGGTKLTVLG
B15: CM-83 (antibody, human IgG4 S228P, lambda, V domains shown)
VH: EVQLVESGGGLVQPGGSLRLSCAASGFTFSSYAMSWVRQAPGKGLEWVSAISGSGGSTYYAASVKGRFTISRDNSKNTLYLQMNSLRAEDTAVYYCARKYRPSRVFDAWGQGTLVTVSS
VL: SYELTQPPSVSVAPGQTARITCSGDALGDKYASWYQQKPGQAPVLVIYEDAKRPDGIPERFSGSNSGNTATLTISGTQAEDEADYYCQSNDADAVWVFGGGTKLTVLG
B16: CM-74 (antibody, human IgG4 S228P, lambda, V domains shown)
VH: EVQLVESGGGLVQPGGSLRLSCAASGFTFSSYAMSWVRQAPGKGLEWVSAISGSGGSTWYAASVKGRFTISRDNSKNTLYLQMNSLRAEDTAVYYCARKYRPSRVYDAWGQGTLVTVSS
VL: SYELTQPPSVSVAPGQTARITCSGDALGDKYASWYQQKPGQAPVLVIYEDARRPSGIPERFSGSNSGNTATLTISGTQAEDEADYYCQSNDIDAVWVFGGGTKLTVLG
B17: CM-73 (antibody, human IgG4 S228P, lambda, V domains shown)
VH: EVQLVESGGGLVQPGGSLRLSCAASGFTYSSYAMSWVRQAPGKGLEWVSAISGSGGSTYYAASVKGRFTISRDNSKNTLYLQMNSLRAEDTAVYYCARKYRPSRAFDAWGQGTLVTVSS
VL: SYELTQPPSVSVAPGQTARITCSGDALGDKYASWYQQKPGQAPVLVIYQDAKRPSGIPERFSGSNSGNTATLTISGTQAEDEADYYCQSNDIDAVWVFGGGTKLTVLG
B18: CM-68 (antibody, human IgG4 S228P, lambda, V domains shown)
VH: EVQLVESGGGLVQPGGSLRLSCAASGFTFSSYAISWVRQAPGKGLEWVSAISGSGGSTYYAASVKGRFTISRDNSKNTLYLQMNSLRAEDTAVYYCARKYRPSRAFDAWGQGTLVTVSS
VL: SYELTQPPSVSVAPGQTARITCSGDALGDKYASWYQQKPGQAPVLVIYEDAKRPSGIPERFSGSNSGNTATLTISGTQAEDEADYYCQSNDLDAVWVFGGGTKLTVLG

Experimental findings from patent publication US20260184777A1 (BEIJING SUNGEN BIOMEDICAL TECHNOLOGY, published 2026) are described below.

The test has as its target T1, human S100A8/A9 heterodimeric antigen, …. Description: cell-based or functional assay.
Consider B1, for which the “Relative IC50 (IC50 relative to CM-1), IL-6 release from hS100A8/A9-activated human PBMCs” value (“Relative IC50” for short) was 0.548 relative to CM-1.
In the case of B2 it was 0.695 relative to CM-1; in that of B3, 1.93 relative to CM-1; in that of B4, 0.156 relative to CM-1.
Turning to B5, the “Relative IC50” value is 1.95 relative to CM-1.
The result for B6 reads 0.633 relative to CM-1; that for B7, 1.23 relative to CM-1.
In the case of B8 it was 0.639 relative to CM-1; in that of B9, 0.943 relative to CM-1.
The result for B10 reads 0.393 relative to CM-1.
For the molecule B11, the “Relative IC50” value was 2.51 relative to CM-1.
In the case of B12 it was 0.99 relative to CM-1; in that of B13, 1.55 relative to CM-1; in that of B14, 2.85 relative to CM-1.
Regarding B15, the “Relative IC50” value was 2.48 relative to CM-1.
In the case of B16, the “Relative IC50” value was 1.52 relative to CM-1.
The result for B17 reads 0.703 relative to CM-1.
The result for B18 reads 1.78 relative to CM-1.
